B1: RTN2 (parent)
chain: SERPLEDLRLRLDHLGWVARGTGS
B2: SCNN1D (parent)
chain: FYRLYQDLETHRLPCTSRCPRPCR

Variants of: B1
Assay: protein stability index of a GFP-peptide fusion (GPS, HEK-293T) (PSI 1-6); higher = more stable
Conditions: c terminus: a fixed tail appended
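Further: lentivirally expressed fusions sorted by FACS into six bins by GFP to DsRed ratio, PSI derived from sequencing read proportions per bin multiplied by bin number.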

Protein stability index, by site and new letter:
H14: L 1.93
R9: Q 2.26, V 3.31
W17: M 3.49
L10: M 2.39, R 2.19
L15: Y 2.59, M 1.89
G23: S 2.61, T 3.04
E2: S 2.43
R20: N 3.55, C 1.86, L 1.85
T22: I 2.48
R11: C 1.52
L5: G 2.33
V18: K 3.79
G16: F 1.98

Variants of: B2
Assay: as above
Conditions: c terminus: a fixed tail appended

Protein stability index: each site, then its substitutions
R12: K 2.37, N 2.22, M 2.33, A 3.03, T 2.1, F 2.41, I 1.42, V 1.93, Y 1.78, C 2.3, D 2.4, L 2.05, Q 2.47, E 2.5, H 3.03, S 3.51, P 2.64, W 2, G 2.47
C19: F 2.65, E 2.66, H 1.84, S 2.09, P 2.03, Q 2.59, V 2.1, I 2.64, A 1.94, D 2.03, K 1.96, G 2.32, W 3.18, Y 1.88, R 2.21, N 3.89, T 3.26, L 2.68, M 2.06
C23: Y 2.33, V 1.85, S 2.67, D 3.36, G 2.65, T 2.37, F 1.71, M 2.41, N 1.91, Q 2.42, A 2.23, I 2.11, H 2.17, P 2.43, E 2.43
S17: R 2.56, L 1.5, C 1.65, W 1.02, I 1.85, P 2.46, H 2.33, Y 2.09, V 4.43, M 1.86, T 2.61, G 1.96, E 2.43, N 2.15, K 1.96, A 2.46, Q 2.45, F 1.75
T16: Q 1.98, C 1.66, V 1.94, F 1.58, N 2.21, G 1.93, P 1.11, E 2.5, H 1.49, W 1.51, A 1.98, L 1.82, R 1.46, S 1.82, Y 1.6, D 2.79, M 2.1, I 1.62, K 1.9
D7: E 2.3, C 1.72, S 1.98, T 2.09, A 1.32, W 3, F 2.22, P 2.44, H 1.5, K 2.08, Y 1.66, V 1.98, I 3.21, M 1.39, Q 1.48, L 1.76, R 2.89, G 2.3, N 1.89
Q6: V 1.65, T 1.72, W 3.33, Y 1.52
R21: T 2.1, M 1.25, W 2.46, P 2.26, H 3.38, Y 2.71, L 2.21, G 2.71, V 1.63, N 1.68, Q 3.16, E 2.22, F 1.96, S 1.88, D 1.83
T10: C 1.94, Q 2.3, V 1.52, K 2.47, N 2.4, P 2.03, Y 1.6, L 2.29, W 2.05, F 1.21, A 2.27, G 2.19, D 2.82, I 2.44, S 1.6, E 2.31, M 1.86, H 2.34, R 2.88
P14: M 1.6, C 1.44, F 1.79, Q 1.94, W 1.57, S 2.44, Y 1.45, V 1.47, A 2.01, N 1.96, R 2.09, K 1.89, G 2.3, H 1.97, L 3.27, D 2.06, I 1.53, E 2.39, T 1.76
R18: I 1.15, H 1.91, G 2.54, T 2.15, C 1.51, V 1.4, N 2.18, Y 1.78, F 1.79, S 1.94, D 1.78, P 1.74, L 1.86, M 2.29
R24: M 2.8, I 1.65, H 1.69, W 1.3, F 1.75, Y 1.67, E 2.14, C 1.77, P 2.35, K 2.65, S 2.13, A 2.2, L 1.6, Q 2.57, D 1.6, N 1.61, T 3.87
L13: D 2.19, M 2.24, S 2.67, I 2.38, W 2.21, H 2.38, A 2.42, G 2.66, C 1.85, E 3.25, R 3.39, F 2.33, Q 2.03, N 2.23, K 2.63, Y 1.72, T 2.97
L8: S 2.47, Y 1.53, A 2.38, K 2.38, D 2.79, F 2.58, V 2.16, M 2.02, T 2.09, G 2.97, C 2.08, H 2.97, I 2.41, P 2.75, Q 2.11, E 2.73, N 3.07, R 2.22, W 1.7
H11: T 2.79, E 2.31, C 2.62, W 2.05, D 2.24, N 1.93, M 1.74, L 1.95, K 1.96, Q 2.37, S 2.21, I 1.39, V 1.98, P 2, R 2.48, A 2.31, Y 1.97, F 1.64
P22: T 2.25, K 2.18, H 2.38, W 1.13, N 2.72, G 2.15, Y 1.32, S 2.33, C 3.11, F 1.8, Q 2.5, E 2.27, V 1.8, M 1.5, R 2.39, I 1.72
E9: K 2.38, D 2.99, N 1.6, I 2.06, H 2.25, Q 1.83, P 2.05, F 1.46, S 1.94, V 2.29, W 1.08, T 1.65, G 1.57, A 2.06, Y 1.5, M 2.87, C 1.66, L 2.8, R 1.58
C15: H 2.28, F 2.71, T 2, W 1.75, S 2.64, G 2.47, Q 1.76, D 2.24, R 2.3, I 2.48, M 1.73, Y 1.8, A 2.07, P 1.85
P20: H 2.18, D 1.81, K 2.57, E 1.32, I 2.22, T 2.88, A 1.98, R 2.07, Y 1.44, L 2.27, G 1.95, S 1.83, N 2.13, C 2.51, F 2.83

Reference: the supplement of paper PMC10567573
